The record followed here is article PMC9325769 (Nature Communications, 2022).

Assay [1] deals with pHipTLp (HipTLp, Lpg2370) (Legionella pneumophila, UniProt Q5ZSZ6). Put plainly: biochemical.
The target of assay [2] is co-expressed 6×His-tagged Lpg2369–Lpg2370 (HipTLp–HipSLp) complex (Legionella pneumophila) (UniProt Q5ZSZ7). The assay can be described thus: ITC.
Assay [3] addresses HipTLp (Lpg2370), 6×His-tagged, expressed alone (autophosphorylated, pHipTLp) (Legionella pneumophila) (UniProt Q5ZSZ6). Put plainly: ITC.

On to `Nc1ncnc2c1ncn2[C@@H]1O[C@H](COP(=O)(O)OP(=O)(O)NP(=O)(O)O)[C@@H](O)[C@H]1O` [AMP–PNP], for which, in assay [1], the equilibrium dissociation constant (Kd) is approximately 70 µM.

In assay [2], “HipBLp (Lpg2368) (from UniProt Q5ZSZ8 1-75) (natural protein)” registered a Kd of 1.5 µM.

In assay [3], “HipSLp (Lpg2369), untagged wild type (6×His-tag cleaved with TEV protease) (from UniProt Q5ZSZ7 1-102) (natural protein)” yielded an equilibrium dissociation constant (Kd) of 0.042 µM.
